Values quoted from earlier work in patent publication US20070032640A1, “Cytokine receptor” (priority 2001, published 2007).

Experiments:
IL-6 = IL-6 binding of IL-6R mutant, relative to wild type; cited from earlier work
gp130 = molecular target: T1, gp130 (Homo sapiens, UniProt P40189); settings: IL-6R N-D mutant; cited from earlier work
T1 sequence (P40189 23-918): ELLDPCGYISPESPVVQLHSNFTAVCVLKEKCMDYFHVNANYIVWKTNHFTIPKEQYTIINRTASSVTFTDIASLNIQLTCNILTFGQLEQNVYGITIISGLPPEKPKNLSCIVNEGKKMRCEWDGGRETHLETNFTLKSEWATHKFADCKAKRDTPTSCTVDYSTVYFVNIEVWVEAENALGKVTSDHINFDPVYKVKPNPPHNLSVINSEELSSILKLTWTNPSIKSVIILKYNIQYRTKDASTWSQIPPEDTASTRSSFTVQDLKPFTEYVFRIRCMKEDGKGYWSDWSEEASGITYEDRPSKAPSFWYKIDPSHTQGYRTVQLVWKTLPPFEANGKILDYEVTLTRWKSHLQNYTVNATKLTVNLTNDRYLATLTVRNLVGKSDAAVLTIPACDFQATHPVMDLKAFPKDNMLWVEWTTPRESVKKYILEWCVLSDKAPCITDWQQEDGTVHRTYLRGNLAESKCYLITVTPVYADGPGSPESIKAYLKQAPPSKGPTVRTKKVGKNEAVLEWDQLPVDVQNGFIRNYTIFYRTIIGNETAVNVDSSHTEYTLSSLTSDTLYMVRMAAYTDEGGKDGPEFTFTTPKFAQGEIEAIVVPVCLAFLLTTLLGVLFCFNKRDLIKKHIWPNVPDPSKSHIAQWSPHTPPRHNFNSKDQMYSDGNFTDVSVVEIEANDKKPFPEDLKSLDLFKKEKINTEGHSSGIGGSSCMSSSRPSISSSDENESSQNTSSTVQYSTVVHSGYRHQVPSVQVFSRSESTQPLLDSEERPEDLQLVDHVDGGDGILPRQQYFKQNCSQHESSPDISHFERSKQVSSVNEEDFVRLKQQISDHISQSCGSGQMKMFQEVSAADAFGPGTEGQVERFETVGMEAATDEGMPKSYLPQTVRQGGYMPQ

B1: N211: IL-6R N-D mutant at N211 (protein, UniProt P08887 20-468, looked up, variant N211D)
Interleukin-6 receptor …: LAPRRCPAQEVARGVLTSLPGDSVTLTCPGVEPEDNATVHWVLRKPAAGSHPSRWAGMGRRLLLRSVQLHDSGNYSCYRAGRPAGTVHLLVDVPPEEPQLSCFRKSPLSNVVCEWGPRSTPSLTTKAVLLVRKFQNSPAEDFQEPCQYSQESQKFSCQLAVPEGDSSFYIVSMCVASSVGSKFSKTQTFQGCGILQPDPPANITVTAVARDPRWLSVTWQDPHSWNSSFYRLRFELRYRAERSKTFTTWMVKDLQHHCVIHDAWSGLRHVVQLRAQEEFGQGEWSEWSPEAMGTPWTESRSPPAENEVSTPMQALTTNKDDDNILFRDSANATSLPVQDSSSVPLPTFLVAGGSLAFGTLLCIAIVLRFKKTWKLRALKEGKTSMHPPYSLGQLVPERPRPTPVLVPLISPPVSPSSLGSDNTSSHNRPDARDPRSPYDISNTDYFFPR
In the case of B1, the Binding (IL-6) is listed as 75% and the “binding to gp130” value (gp130) is listed as “N-D mutant, <10% binding to gp130”.
